The numbers were not newly measured in PMC8174820, which cites them from elsewhere.

The series deals with Tyr134. Nature of the series: chemical modification.

Regarding “Cellular retinoic acid binding protein 2 (CRABP2) (Homo sapiens (inferred; the review discusses the human proteome but does not name the species for CRABP2))”, the pKa entry is reported as “∼7.6”.
